According to patent US20110086089A1, “USE OF P27KIP1 FOR THE PREVENTION AND TREATMENT OF HEART FAILURE” (UNIVERSITY HEALTH NETWORK, priority 2008, published 2011):
Marks after values point to notes of the source that are not given here.

Test system: p27 KO mice
Assay: Chronic Ang II infusion for 14 days with daily TAT.protein injection, p27 KO mice
Assay type: in vivo
Details: for FS / LVEDD / LVEF / LVESD / PWD: p27 KO, echocardiography at 14 days
Protocol: (A) Heart-weight corrected for body-weight (left panel) and Masson-stain of myocardial cross sections (right panel). Mean±s.e.m., n=6-8. *P<0.01 vs sham saline. **P<0.01 vs Ang II. Scale bar, 2 mm. (B) Cell size analysis of adult cardiac myocytes isolated from 8-weeks-old mice. One hundred cells from three different mice were analyzed per group. Mean±s.e.m. *P<0.01 vs sham saline. **P<0.01 vs Ang II. (C) Determination of ANF/BNP mRNA levels by qRT-PCR. Mean±s.e.m., n=6-8. *P<0.01 vs sham saline. **P<0.01 vs Ang II. (D) CK2-alpha-prime-dependent kinase activity determined in whole left ventricular tissue samples. One typical result of two independent experiments is shown. (E, F) Ang II action induces apoptosis in p27^−/− mice. (E) Quantification of apoptotic cardiac myocytes (white arrowheads) by in situ TUNEL and GATA4 immunofluorescence histochemistry of left ventricular specimen. Mean±s.e.m., n=4. *P<0.01 vs sham saline. **P<0.05 vs sham saline. #P<0.01. (F) Determination of caspase 3 activity in total left ventricular heart tissue samples. Mean±s.e.m., n=4. *P<0.05 vs sham saline. #P<0.01. (G) Model for CK2-alpha-prime-dependent regulation of cardiac hypertrophy through phosphorylation of p27. Hypertrophic signals stimulate CK2-alpha-prime kinase that phosphorylates p27 at S83 and T187. Phosphorylation of p27 impairs its ability to bind to and inhibit […] activity. Subsequently, p27 is proteasomally degraded allowing hypertrophic growth to proceed.
Next, the inventors examined the effect of transduced proteins on cardiac hypertrophy in p27^−/− mice. Elimination of p27 gene function in these animals completely abrogated the ability of kd.CK2-alpha-prime to block cardiac hypertrophy (FIG. 6A-D). In contrast, hypertrophic responses to Ang II were abolished by p27deltaPi injections. Thus, reconstitution of p27 protein abundance in the myocardium of p27^−/− mice was accompanied by inhibition of Ang II action. Moreover, the inventors observed a marked increase in the number of TUNEL-positive cardiomyocyte nuclei in Ang II-infused p27^−/− mice (FIG. 6E,F) as compared to the WT controls. […] This was in direct contrast to the effect seen by ectopic kd.CK2-alpha-prime consistent with the inventors' previous work showing that CK2 is cardioprotective^73,74.
Spontaneously beating cardiomyocytes from heart ventricles of neonatal rats were cultured and subjected to treatment with angiotensin II (Ang II). DMAT (2-dimethylamino-4,5,6,7-tetrabromo-1H-benzimidazol), DMSO, lactacystin and LLM were obtained from Calbiochem. Ang II was purchased from Sigma. Animal usage was in accordance with approved institutional animal care guidelines. Age-matched male WI C57BL/6 and p27^−/− mice were used in this study. For results shown in FIGS. 1 to 9: Ang II was chronically infused subcutaneously by osmotic pumps (model 2000, Alzet) at a dose of 1.4 μg/kg per minute for 14 days. TAT.proteins (10 mg/kg) were injected intraperitoneally once daily for 14 days. For results shown in FIGS. 10 to 12: Ang II was chronically infused subcutaneously by osmotic pumps (model 2000, Alzet) at a dose of 0.7 μg/kg per minute for 16 days. TAT.proteins (20 mg/kg) were injected intraperitoneally once daily for 8 days starting at day 8. Thoracic aortic banding (TAB) and pressure gradient measurements were performed as described^39.

[1] = Ang infusion 1.4 μg/kg per minute 14 days, TAT.protein 10 mg/kg i.p. once daily
[2] = saline infusion, TAT.protein 10 mg/kg i.p. once daily 14 days

B1: kd.CK2-α′: catalytically-inactive kinase-dead CK2-alpha-prime, point mutation K69M; TAT-conjugated protein in mice, lentivirally expressed in cardiomyocytes (protein)
chain: MPGPAAGSRARVYAEVNSLRSREYWDYEAHVPSWGNQDDYQLVRKLGRGKYSEVFEAINITNNERVVVMILKPVKKKKIKREVKILENLRGGTNIIKLIDTVKDPVSKTPALVFEYINNTDFKQLYQILTDFDIRFYMYELLKALDYCHSKGIMHRDVKPHNVMIDHQQKKLRLIDWGLAEFYHPAQEYNVRVASRYFKGPELLVDYQMYDYSLDMWSLGCMLASMIFRREPFFHGQDNYDQLVRIAKVLGTEELYGYLKKYHIDLDPHFNDILGQHSRKRWENFIHSENRHLVSPEALDLLDKLLRYDHQQRLTAKEAMEHPYFYPVVKEQSQPCADNAVLSSGLTAAR
modifications: left off: small tags and cut ends
notes: TAT-conjugated protein in mice, lentivirally expressed in cardiomyocytes
cardiac hypertrophy / hypertrophic responses to Ang II (Ang II-infused p27−/− mice, TAT.proteins 10 mg/kg i.p. once daily): fails to inhibit cardiac hypertrophy
FS [1]: 52 ± 1.9* %
LVEDD [1]: 4.5 ± 0.1* mm
LVEF [1]: 83 ± 2.8* %
LVESD [1]: 2.1 ± 0.2* mm
PWD [1]: 1.2 ± 0.1* mm
FS [2]: 39 ± 2.6%
LVEDD [2]: 3.8 ± 0.2 mm
LVEF [2]: 69 ± 2.3%
LVESD [2]: 1.3 ± 0.1 mm
PWD [2]: 0.7 ± 0.2 mm
